Series [1] deals with Loa22 of L. borgpetersenii sv. Ballum str. M2, endogenous (Leptospira borgpetersenii sv. Ballum str. M2 (endogenous in cultivated cells)). Description: SDS-PAGE and immunoblot of whole cell lysates; Leptospira cells in SDS-PAGE buffer (4% SDS, 2% β-ME), sonicated and heated (10 min, 99 °C); blot screened with anti-Loa22_(27-197) antiserum; oligomer read from the size of the bands. A general note: In western blotting, separated proteins are transferred to a membrane and probed.

The target in series [2] is Loa22 of L. interrogans sv. Canicola str. Kito, endogenous (Leptospira interrogans sv. Canicola str. Kito (endogenous in cultivated cells)). The description is as above.
Series [3] concerns the target Loa22 of L. interrogans sv. Copenhageni str. Fiocruz L1-130, endogenous (Leptospira interrogans sv. Copenhageni str. Fiocruz L1-130 (endogenous in cultivated cells)). Described as above.
The target in series [4] is Loa22 of L. interrogans sv. Pomona str. LC82-25, endogenous (Leptospira interrogans sv. Pomona str. LC82-25 (endogenous in cultivated cells)). The description is as above.
Series [5] has as its target Loa22 of L. kirschneri sv. Grippotyphosa str. RM52, endogenous (Leptospira kirschneri sv. Grippotyphosa str. RM52 (endogenous in cultivated cells)). The description is as above.
For series [6], the target named is Loa22 of L. noguchii sv. Autumnalis str. Bonito, endogenous (Leptospira noguchii sv. Autumnalis str. Bonito (endogenous in cultivated cells)). The series is described as above.
The nature of series [7]: SEC; TSKgel G4000SWXL column, PBS as mobile phase, 1.0 mL/min; 50 µg recombinant protein injected (25 µL); MW from a standard curve of globular proteins; fractions checked by SDS-PAGE and immunoblot with anti-Loa22_(27-197) antiserum. In general terms: SEC sorts molecules by how far they enter the pores of the column.
The target in series [8] is recombinant Loa22_(27-197) (Leptospira OmpA-like 22 kDa protein) of L. interrogans sv. Copenhageni str. Fiocruz L1-130 (Leptospira interrogans sv. Copenhageni str. Fiocruz L1-130). Described as above.

Usually stoichiometry N stands for a count of units in the complex or per binding partner. “Loa22 of L. borgpetersenii sv. Ballum str. M2, endogenous (natural protein)”: the stoichiometry N in series [1] came to 3.
Regarding “Loa22 of L. interrogans sv. Canicola str. Kito, endogenous (natural protein)”, the stoichiometry N in series [2] came out at 3.
In series [3], “Loa22 of L. interrogans sv. Copenhageni str. Fiocruz L1-130, endogenous (natural protein)” had a stoichiometry N of 3.
“Loa22 of L. interrogans sv. Pomona str. LC82-25, endogenous (natural protein)” displayed a stoichiometry N in series [4] of 3.
As to “Loa22 of L. kirschneri sv. Grippotyphosa str. RM52, endogenous (natural protein)”, in series [5], the stoichiometry N is 3.
For the substance “Loa22 of L. noguchii sv. Autumnalis str. Bonito, endogenous (natural protein)”, in series [6], the stoichiometry N turned out to be 3.
In the case of “recombinant Loa22_(27-197) (Leptospira OmpA-like 22 kDa protein) of L. interrogans sv. Copenhageni str. Fiocruz L1-130”, the “percent of the protein as monomer (area under the SEC peaks)” value in series [7] is listed as “a majority of the recombinant protein exists as a monomer (89% of the total)”.
As for “recombinant Loa22_(27-197) (Leptospira OmpA-like 22 kDa protein) of L. interrogans sv. Copenhageni str. Fiocruz L1-130 (domain or fragment)”, the stoichiometry N in series [8] stood at 3.

Values taken from article PMC10506094.
